In series [1] the target is T1, TbLAP-A (Trypanosoma brucei, UniProt Q385B0).
T1 construct: gene Tb11.02.4440; full length, E. coli BL21(DE3); N-terminal His6 tag, HRV 3C-cleaved or with a noncleavable His tag; homohexamer; N-terminal domain aa 2-197, C-terminal domain aa 215-521
T1 sequence (Q385B0 1-521): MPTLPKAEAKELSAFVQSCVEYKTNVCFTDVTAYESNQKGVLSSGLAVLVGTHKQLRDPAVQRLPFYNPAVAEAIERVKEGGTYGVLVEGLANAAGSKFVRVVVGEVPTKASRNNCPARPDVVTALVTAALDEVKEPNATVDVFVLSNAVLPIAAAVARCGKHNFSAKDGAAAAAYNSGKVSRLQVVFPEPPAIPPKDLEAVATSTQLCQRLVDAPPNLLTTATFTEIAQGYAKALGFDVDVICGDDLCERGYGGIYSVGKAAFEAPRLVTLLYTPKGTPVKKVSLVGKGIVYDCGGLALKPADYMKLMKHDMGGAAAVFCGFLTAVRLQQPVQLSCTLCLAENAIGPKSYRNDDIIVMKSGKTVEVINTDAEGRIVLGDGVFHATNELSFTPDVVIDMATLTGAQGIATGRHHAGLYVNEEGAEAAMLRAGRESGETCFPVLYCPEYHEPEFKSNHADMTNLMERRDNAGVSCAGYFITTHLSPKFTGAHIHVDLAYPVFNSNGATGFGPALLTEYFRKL
Description: native gel zymography, AMC fluorescence. The class given is biochemical. The following applies: 7.5 µM substrate, 50 mM Tris pH 8.0, 100 mM KCl, 1 mM MnCl2, 37 °C, 10 min.

The target of series [2] is T1, TbLAP-A. The experiment in a line: X-ray crystal structure. It is filed as binding. The following applies: Mn2+ in both metal sites, active site.
Series [3] addresses Leishmania major acidic M17 leucine aminopeptidase (LmLAP-A) (Leishmania major (Friedlin)). The experiment in a line: crystal structure; crystals grown at 20°C by sitting- and hanging-drop vapor diffusion; apo, holo (Mn2+) and inhibitor-bound forms; homohexamer in the crystal.
For series [4] the target is unchanged. The experiment in a line: SEC-MALS; SEC-MALLS on Superdex 200 10/300; 10 mM Tris pH 8.0, 200 mM NaCl, 1 mM DTT; 0.1, 0.5, 1.0 and 3.0 mg/ml (TbLAP-A also 5 mg/ml), incubated at least 3 h at room temperature. In general terms: In gel filtration, larger molecules generally elute earlier.
In series [5] the target is Trypanosoma brucei acidic M17 leucine aminopeptidase (TbLAP-A) (Trypanosoma brucei (Lister427)). The description is as above.
For series [6] the target is unchanged. The experiment in a line: crystal structure; crystals grown at 20°C by sitting- and hanging-drop vapor diffusion; apo, holo (Mn2+) and inhibitor-bound forms; homohexamer in the crystal.
Series [7] has the same target. Description: SEC-MALS; SEC-MALLS on Superdex 200 10/300; 10 mM Tris pH 8.0, 200 mM NaCl, 1 mM DTT; 0.1, 0.5, 1.0 and 3.0 mg/ml (TbLAP-A also 5 mg/ml), incubated at least 3 h at room temperature. This is another data set of the same source.
Series [8] deals with the molecule itself. Description: crystal structure; crystals grown at 20°C by sitting- and hanging-drop vapor diffusion; apo, holo (Mn2+) and inhibitor-bound forms; homohexamer in the crystal.
Series [9] deals with the molecule itself. The experiment in a line: SEC-MALS; SEC-MALLS on Superdex 200 10/300; 10 mM Tris pH 8.0, 200 mM NaCl, 1 mM DTT; 0.1, 0.5, 1.0 and 3.0 mg/ml (TbLAP-A also 5 mg/ml), incubated at least 3 h at room temperature.

Where “and” joins values, the source holds several entries; their conditions need not be identical. Equal entries are not always repeated.

As a reminder, the stoichiometry N is a count of units in the complex or per binding partner.

As for `Cc1cc(=O)oc2cc(NC(=O)[C@@H](N)CC(C)C)ccc12` [Leu-AMC], in series [1], the “native gel zymography, AMC fluorescence” value is “All three LAP-As were active against Leu-AMC”.

As to `CCCCC[C@H](CC(=O)NO)C(=O)N[C@H](C(=O)N1CCC[C@H]1CO)C(C)C` [actinonin], the X-ray crystal structure result in [2] (less than full occupancy, six chains) is reported as “The TbLAP-A--actinonin complex had six molecules in the asymmetric unit”.

On to `CC(C)C[C@H](NC(=O)[C@@H](O)[C@H](N)Cc1ccccc1)C(=O)O` [bestatin], for which, in series [2] (bicarbonate bound, 12 chains), the X-ray crystal structure result is given as “TbLAP-A was cocrystallized with the inhibitor bestatin”.

Regarding “Leishmania major acidic M17 leucine aminopeptidase (LmLAP-A) (enzyme)”, the stoichiometry N in [3] was 6; in [4], 6 and 3.

“Trypanosoma brucei acidic M17 leucine aminopeptidase (TbLAP-A) (enzyme)”: the stoichiometry N in [5] came to 6; in series [6], 6; in series [7] it was 3.

B1: Trypanosoma cruzi acidic M17 leucine aminopeptidase (TcLAP-A) (enzyme)
chain: MNRPPATDSGASEFVRSCVNFKTNVEFTDVDAYKKTHTAGLASTFVVILGTHAQLREDALKELPFYCPAVAEAIQRVKKGETYAVLAEGVKNEANERFVRVLVGEVPSEASRTNCSARPDVVVSLLSAALEEIKGPETKVDVFVCSTAALAIAVAAARSAKRNFTAKEGLAARGYCDNCVRLTVVFPTAPNPSPSELVVVATSTQLCQRLVDAPTNLLNTATFAEVAQSYAKELGCAVDVICGEELRERGYGGIYSVGKCAAEAPRLVTLSYKPKDETRKKVALVGKGIVYDSGGLSLKPTNFMTGMKRDMGGAAAVFCGFLTAVRLQMPIELSCTLCLAENAIGPDAYRNDDILTLKSGKTVEVNNTDAEGRLVLGDGVFHATHEISFKPDVLVDMATLTGAQGIATGHRHAGIFVNDEEEELSFLKAGRVSGETCFPVLYCPEYHVTEFRSPVADMRNSVKQVNNASVSCAGHFVANHLSPDFKGKHIHVDMAFPAFENDKATGFGPALLMEYLRNLR
Regarding B1, the figures for the “stoichiometry N” value in series [8] and in [9] were 6 and 3, respectively.

For the origin of these results see publication PMC5557676, “Structural Characterization of Acidic M17 Leucine Aminopeptidases from the TriTryps and Evaluation of Their Role in Nutrient Starvation in Trypanosoma brucei” (mSphere, 2017).
